Test [1] concerns the target T1, TGM1 full-length (D1/2/3/4/5), aa 19-422 (Heligmosomoides polygyrus, UniProt A0A2D1LW19 19-422, 125I (chloramine T) in the cross-linking assays; biotin (EZ-Link Sulfo-NHS-LC-Biotin) in the pull-downs; Alexa Fluor 488 in flow cytometry; no label named for ITC).
T1 construct: TGF-β mimic TGM1, Heligmosomoides polygyrus, GenBank MG099712 (422-aa protein), aa 19-422, omitting the parasite-encoded signal peptide; also called TGM1-FL; FL; source: HEK293 (pSecTag2A), purified (HiTrap nickel chelating, Superdex 75 as needed)
T1 sequence: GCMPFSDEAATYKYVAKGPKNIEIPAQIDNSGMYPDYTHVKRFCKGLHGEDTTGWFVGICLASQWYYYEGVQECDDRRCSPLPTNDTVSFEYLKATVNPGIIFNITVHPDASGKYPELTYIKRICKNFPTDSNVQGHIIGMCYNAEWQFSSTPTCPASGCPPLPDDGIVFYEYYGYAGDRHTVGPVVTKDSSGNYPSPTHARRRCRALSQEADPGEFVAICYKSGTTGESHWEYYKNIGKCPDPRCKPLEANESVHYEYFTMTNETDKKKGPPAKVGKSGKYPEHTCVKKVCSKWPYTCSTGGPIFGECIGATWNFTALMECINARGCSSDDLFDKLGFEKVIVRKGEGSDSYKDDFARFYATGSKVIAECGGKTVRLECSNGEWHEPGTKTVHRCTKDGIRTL
Kind of test: ITC; CD44 in the syringe, TGM1 protein in the cell; 25 mM sodium phosphate, 50 mM NaCl, pH 6.0, 35 °C; 1:1 binding model, global fit of two replicates. Conditions: both partners purified. Background: In ITC the heat of successive injections is recorded.

In test [2] the target is T2, TGM1 D4/5 (domains 4 and 5) (Heligmosomoides polygyrus, UniProt A0A2D1LW19 1-422, 125I (chloramine T) in the cross-linking assays; biotin (EZ-Link Sulfo-NHS-LC-Biotin) in the pull-downs; Alexa Fluor 488 in flow cytometry; no label named for ITC).
T2 construct: TGM1, Heligmosomoides polygyrus, GenBank MG099712, domains 4 and 5; D1/2/3 ends at aa 262 and the protein at aa 422; also called TGM1-D4/5-biotin; source: recombinant, purified
T2 sequence: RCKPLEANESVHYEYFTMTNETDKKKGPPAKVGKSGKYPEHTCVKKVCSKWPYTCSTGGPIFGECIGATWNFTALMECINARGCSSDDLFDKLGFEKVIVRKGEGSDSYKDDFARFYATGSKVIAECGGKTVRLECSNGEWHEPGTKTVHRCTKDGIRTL
Described as above. As to conditions: both partners purified.

B1: mouse CD44 hyaluronan binding domain, aa 23-174 (domain or fragment, UniProt P15379 23-174, looked up)
chain: QIDLNVTCRYAGVFHVEKNGRYSISRTEAADLCQAFNSTLPTMDQMKLALSKGFETCRYGFIEGNVVIPRIHPNAICAANHTGVYILVTSNTSHYDTYCFNASAPPEEDCTSVTDLPNSFDGPVTITIVNRDGTRYSKKGEYRTHQEDIDAS
notes: also called mCD44; murine CD44; source: HEK293 (pcDNA3.1+), purified (HiTrap nickel chelating, Superdex 75 as needed)
With B1, in test [1], the Kd (as a rule, the constant that tells how readily two partners part at equilibrium) was determined as 64 nM; the dH is -17.5 kcal/mol; the stoichiometry N (usually a count of units in the complex or per binding partner) came to 0.8. In test [2], the Kd is 62 nM, the dH is -19.4 kcal/mol and the “stoichiometry N” value stood at 1.4.

B2: human CD44 hyaluronan binding domain, aa 21-169 (domain or fragment, UniProt P16070 21-169, looked up)
chain: QIDLNITCRFAGVFHVEKNGRYSISRTEAADLCKAFNSTLPTMAQMEKALSIGFETCRYGFIEGHVVIPRIHPNSICAANNTGVYILTSNTSQYDTYCFNASAPPEEDCTSVTDLPNAFDGPITITIVNRDGTRYVQKGEYRTNPEDIY
notes: also called hCD44; source: HEK293 (pcDNA3.1+), purified (HiTrap nickel chelating, Superdex 75 as needed)
As for B2, in test [1], the Kd was 92 nM, the dH is -10.3 kcal/mol and the “stoichiometry N” value was determined as 1.2. Besides, in test [2], the Kd was found to be 140 nM, the dH is -9.6 kcal/mol and the “stoichiometry N” value is 1.2.

Values taken from PMC10450677, “CD44 acts as a coreceptor for cell-specific enhancement of signaling and regulatory T cell induction by TGM1, a parasite TGF-β mimic” (Proceedings of the National Academy of Sciences of the …, 2023).
